This note sets out measurements from patent publication US20250073302A1, “CYCLIC PEPTIDES AS PROTEASOME STIMULATORS” (Purdue Research Foundation, priority 2023, published 2025).

Non-standard residues stand in square brackets, D forms with d. dBpa = N[C@H](Cc1ccc(C(=O)c2ccccc2)cc1)C(=O)O; dPhe(3,4-F2) = N[C@H](Cc1ccc(F)c(F)c1)C(=O)O; dPhe(3-F) = N[C@H](Cc1cccc(F)c1)C(=O)O; dPhe(4-F) = N[C@H](Cc1ccc(F)cc1)C(=O)O

For the assay, the target named is T1, 20S CP.
T1 construct: purchased South Bay
Description: TAS-1 biochemical assay (20S CP stimulation). The conditions noted are these: TAS-1 assay. The method, then: Each compound was initially tested at 10 μM. Each well contained […] of 11.4 μM TAS-1 solution in Tris HCl (50 mM, pH 7.4) along with 5 nM of 20 sCP (South Bay). 1 μL of the test compound, control, or DMSO was added to the desired well to obtain a final DMSO concentration of 2%, with the total volume being 50 μL. Compounds were tested in three replicates that each had technical triplicates. The fluorescence was recorded using a SynergyNeo 2, where the excitation and emission was set to 335 nm and 493 nm. The plate reader was heated to 37° C. The fluorescence was recorded every 90 seconds over a 1-hour period. A simple linear regression was performed on the data plotted against time to obtain the rate of hydrolysis of TAS-1 by the 20S CP. The data was then normalized against DMSO to get the percent stimulation.
In the case of “KLFFRA [SEQ ID NO: 7] (cyclo(K[dL]F[dF]R[dA]); SMILES CC(C)C[C@H]1NC(=O)[C@H](CCCCN)NC(=O)[C@@H](C)NC(=O)[C@H](CCCNC(=N)N)NC(=O)[C@@H](Cc2ccccc2)NC(=O)[C@H](Cc2ccccc2)NC1=O) [CyPPS7, cyclic peptide; AA1 Lys, AA2 D-Leu, AA3 Phe, AA4 D-Phe, AA5 Arg, AA6 D-Ala]”, the “20S CP stimulatory activity (in words, SAR compared to CyPPS1)” value is on record as “decreased activity”.

“TAFFRA [SEQ ID NO: 3] (cyclo(T[dA]F[dF]R[dA]); SMILES C[C@H]1NC(=O)[C@H](CCCNC(=N)N)NC(=O)[C@@H](Cc2ccccc2)NC(=O)[C@H](Cc2ccccc2)NC(=O)[C@@H](C)NC(=O)[C@H]([C@@H](C)O)NC1=O) [CyPPS3, cyclic peptide; AA1 Thr, AA2 D-Ala, AA3 Phe, AA4 D-Phe, AA5 Arg, AA6 D-Ala]”: the “20S CP stimulatory activity (in words, SAR compared to CyPPS1)” value is reported as “greatest loss of stimulatory activity”.

Consider “TDFFRA [SEQ ID NO: 10] (cyclo(T[dD]F[dF]R[dA]); SMILES C[C@H]1NC(=O)[C@H](CCCNC(=N)N)NC(=O)[C@@H](Cc2ccccc2)NC(=O)[C@H](Cc2ccccc2)NC(=O)[C@@H](CC(=O)O)NC(=O)[C@H]([C@@H](C)O)NC1=O) [CyPPS10, cyclic peptide; AA1 Thr, AA2 D-Asp, AA3 Phe, AA4 D-Phe, AA5 Arg, AA6 D-Ala]”, for which the “20S CP stimulatory activity (in words, SAR compared to CyPPS1)” value is recorded as “decreased activity”.

On to “TIFFRA [SEQ ID NO: 12] (cyclo(T[dI]F[dF]R[dA]); SMILES CC[C@@H](C)[C@H]1NC(=O)[C@H]([C@@H](C)O)NC(=O)[C@@H](C)NC(=O)[C@H](CCCNC(=N)N)NC(=O)[C@@H](Cc2ccccc2)NC(=O)[C@H](Cc2ccccc2)NC1=O) [CyPPS12, cyclic peptide; AA1 Thr, AA2 D-Ile, AA3 Phe, AA4 D-Phe, AA5 Arg, AA6 D-Ala]”, for which the “20S CP stimulatory activity (in words, SAR compared to CyPPS1)” value is “lack of activity”.

With “TKFFRA [SEQ ID NO: 11] (cyclo(T[dK]F[dF]R[dA]); SMILES C[C@H]1NC(=O)[C@H](CCCNC(=N)N)NC(=O)[C@@H](Cc2ccccc2)NC(=O)[C@H](Cc2ccccc2)NC(=O)[C@@H](CCCCN)NC(=O)[C@H]([C@@H](C)O)NC1=O) [CyPPS11, cyclic peptide; AA1 Thr, AA2 D-Lys, AA3 Phe, AA4 D-Phe, AA5 Arg, AA6 D-Ala]”, the “20S CP stimulatory activity (in words, SAR compared to CyPPS1)” value is “decreased activity”.

On to “TLFARA [SEQ ID NO: 5] (cyclo(T[dL]F[dA]R[dA]); SMILES CC(C)C[C@H]1NC(=O)[C@H]([C@@H](C)O)NC(=O)[C@@H](C)NC(=O)[C@H](CCCNC(=N)N)NC(=O)[C@@H](C)NC(=O)[C@H](Cc2ccccc2)NC1=O) [CyPPS5, cyclic peptide; AA1 Thr, AA2 D-Leu, AA3 Phe, AA4 D-Ala, AA5 Arg, AA6 D-Ala]”, for which the “20S CP stimulatory activity (in words, SAR compared to CyPPS1)” value is on record as “greatest loss of stimulatory activity”.

Take “TLFFAR [SEQ ID NO: 6] (cyclo(T[dL]F[dF]A[dR]); SMILES CC(C)C[C@H]1NC(=O)[C@H]([C@@H](C)O)NC(=O)[C@@H](CCCNC(=N)N)NC(=O)[C@H](C)NC(=O)[C@@H](Cc2ccccc2)NC(=O)[C@H](Cc2ccccc2)NC1=O) [CyPPS6, cyclic peptide; AA1 Thr, AA2 D-Leu, AA3 Phe, AA4 D-Phe, AA5 Ala, AA6 D-Arg]”: the “20S CP stimulatory activity (in words, SAR compared to CyPPS1)” value was “stimulatory activity was preserved”.

Regarding “TLFFRS [SEQ ID NO: 22] (cyclo(T[dL]F[dF]R[dS]); SMILES CC(C)C[C@H]1NC(=O)[C@H]([C@@H](C)O)NC(=O)[C@@H](CO)NC(=O)[C@H](CCCNC(=N)N)NC(=O)[C@@H](Cc2ccccc2)NC(=O)[C@H](Cc2ccccc2)NC1=O) [CyPPS22, cyclic peptide; AA1 Thr, AA2 D-Leu, AA3 Phe, AA4 D-Phe, AA5 Arg, AA6 D-Ser]”, the “20S CP stimulatory activity (in words, SAR compared to CyPPS1)” value is “maintained stimulatory activity”.

As for “TLFXRA [SEQ ID NO: 18] (cyclo(T[dL]F[dPhe(4-F)]R[dA]); SMILES CC(C)C[C@H]1NC(=O)[C@H]([C@@H](C)O)NC(=O)[C@@H](C)NC(=O)[C@H](CCCNC(=N)N)NC(=O)[C@@H](Cc2ccc(F)cc2)NC(=O)[C@H](Cc2ccccc2)NC1=O) [CyPPS18, cyclic peptide; AA1 Thr, AA2 D-Leu, AA3 Phe, AA4 D-Phe (4F), AA5 Arg, AA6 D-Ala]”, the “20S CP stimulatory activity (in words, SAR compared to CyPPS1)” value is recorded as “decreased activity”.

Take “TLFXRA [SEQ ID NO: 19] (cyclo(T[dL]F[dPhe(3-F)]R[dA]); SMILES CC(C)C[C@H]1NC(=O)[C@H]([C@@H](C)O)NC(=O)[C@@H](C)NC(=O)[C@H](CCCNC(=N)N)NC(=O)[C@@H](Cc2cccc(F)c2)NC(=O)[C@H](Cc2ccccc2)NC1=O) [CyPPS19, cyclic peptide; AA1 Thr, AA2 D-Leu, AA3 Phe, AA4 D-Phe (3F), AA5 Arg, AA6 D-Ala]”: the “20S CP stimulatory activity (in words, SAR compared to CyPPS1)” value is on record as “retained activity”.

Take “TLFXRA [SEQ ID NO: 20] (cyclo(T[dL]F[dPhe(3,4-F2)]R[dA]); SMILES CC(C)C[C@H]1NC(=O)[C@H]([C@@H](C)O)NC(=O)[C@@H](C)NC(=O)[C@H](CCCNC(=N)N)NC(=O)[C@@H](Cc2ccc(F)c(F)c2)NC(=O)[C@H](Cc2ccccc2)NC1=O) [CyPPS20, cyclic peptide; AA1 Thr, AA2 D-Leu, AA3 Phe, AA4 D-Phe (3, 4F), AA5 Arg, AA6 D-Ala]”: the “20S CP stimulatory activity (in words, SAR compared to CyPPS1)” value is listed as “retained activity”.

Turning to “TLFXRA [SEQ ID NO: 21] (cyclo(T[dL]F[dBpa]R[dA]); SMILES CC(C)C[C@H]1NC(=O)[C@H]([C@@H](C)O)NC(=O)[C@@H](C)NC(=O)[C@H](CCCNC(=N)N)NC(=O)[C@@H](Cc2ccc(C(=O)c3ccccc3)cc2)NC(=O)[C@H](Cc2ccccc2)NC1=O) [CyPPS21, cyclic peptide; AA1 Thr, AA2 D-Leu, AA3 Phe, AA4 D-BPA, AA5 Arg, AA6 D-Ala]”, the “20S CP stimulatory activity (in words, SAR compared to CyPPS1)” value is “stimulatory activity was maintained”.

With “TLFYRA [SEQ ID NO: 17] (cyclo(T[dL]F[dY]R[dA]); SMILES CC(C)C[C@H]1NC(=O)[C@H]([C@@H](C)O)NC(=O)[C@@H](C)NC(=O)[C@H](CCCNC(=N)N)NC(=O)[C@@H](Cc2ccc(O)cc2)NC(=O)[C@H](Cc2ccccc2)NC1=O) [CyPPS17, cyclic peptide; AA1 Thr, AA2 D-Leu, AA3 Phe, AA4 D-Tyr, AA5 Arg, AA6 D-Ala]”, the “20S CP stimulatory activity (in words, SAR compared to CyPPS1)” value is on record as “decline in stimulatory activity”.

With “TLYFRA [SEQ ID NO: 16] (cyclo(T[dL]Y[dF]R[dA]); SMILES CC(C)C[C@H]1NC(=O)[C@H]([C@@H](C)O)NC(=O)[C@@H](C)NC(=O)[C@H](CCCNC(=N)N)NC(=O)[C@@H](Cc2ccccc2)NC(=O)[C@H](Cc2ccc(O)cc2)NC1=O) [CyPPS16, cyclic peptide; AA1 Thr, AA2 D-Leu, AA3 Tyr, AA4 D-Phe, AA5 Arg, AA6 D-Ala]”, the “20S CP stimulatory activity (in words, SAR compared to CyPPS1)” value is “decline in stimulatory activity”.

Take “VLFFRA [SEQ ID NO: 9] (cyclo(V[dL]F[dF]R[dA]); SMILES CC(C)C[C@H]1NC(=O)[C@H](C(C)C)NC(=O)[C@@H](C)NC(=O)[C@H](CCCNC(=N)N)NC(=O)[C@@H](Cc2ccccc2)NC(=O)[C@H](Cc2ccccc2)NC1=O) [CyPPS9, cyclic peptide; AA1 Val, AA2 D-Leu, AA3 Phe, AA4 D-Phe, AA5 Arg, AA6 D-Ala]”: the “20S CP stimulatory activity (in words, SAR compared to CyPPS1)” value is “maintained stimulatory activity”.
